Key:
[1] = target: T1, Homo sapiens factor Bb protein (human, UniProt P00751 260-764); experiment: SPR single cycle kinetics; ratio against VH0/Vκ0
T1 construct: Bought from CompTech (A155); also called complement factor Bb; human factor Bb
Method: (§1) In order to assess the binding of all humanized variants, single cycle kinetic analysis was performed on supernatants from transfected cell cultures. […] All single cycle kinetic experiments were run at 25° C. with HBS-P+running buffer (pH 7. 4) (GE Healthcare, Little Chalfont, UK).
(§2) Antibodies were diluted in running buffer to a final concentration of 1 μg/ml, based on concentrations assessed by ELISA titer. At the start of each cycle, antibodies were loaded onto Fc2, Fc3 and Fc4 of the Protein A chip (GE Healthcare, Little Chalfont, UK). IgGs were captured at a flow rate of 10 μl/min to give an immobilization level (RL) of ˜63 RU, the theoretical value to obtain an Rmax of ˜50 RU. The surface was then allowed to stabilize. Single cycle kinetic data was obtained with factor Bb (CompTech, Tyler, USA) as the analyte at a flow rate of 30 μl/min to minimize any potential mass transport limitations. Multiple repeats with the reference chimeric antibody were performed to check the stability of the surface and analyte over the kinetic cycles. The signal from the reference channel Fc1 (no antibody) was subtracted from that of Fc2, Fc3 and Fc4 to correct for differences in non-specific binding to a reference surface. A four point, two-fold dilution range from 0. 78 nM to 6. 25 nM factor Bb without regeneration between each concentration was used. The association phase for the four injections of increasing concentrations of factor Bb was monitored for 200 seconds each time and a single dissociation phase was measured for 200 seconds following the last injection of factor Bb. Regeneration of the Protein A surface was conducted using two injections of 10 mM glycine-HCL pH 1. 5.
(§3) The sensorgrams and fitted data for the single cycle kinetics are shown in FIGS. 1A-1D and the kinetic parameters measured for the interaction of factor Bb with each antibody are shown in Table 7. The relative KD was calculated by dividing the KD of the VH0/Vκ0 reference antibody by that of the humanized variant assayed in the same experiment.

[2] = target: T1, Homo sapiens factor Bb protein; experiment: SPR single cycle kinetics, IgG on Protein A chip, factor Bb analyte
Method: as §1, §2, §3

T1 sequence (P00751 260-764 limits assumed): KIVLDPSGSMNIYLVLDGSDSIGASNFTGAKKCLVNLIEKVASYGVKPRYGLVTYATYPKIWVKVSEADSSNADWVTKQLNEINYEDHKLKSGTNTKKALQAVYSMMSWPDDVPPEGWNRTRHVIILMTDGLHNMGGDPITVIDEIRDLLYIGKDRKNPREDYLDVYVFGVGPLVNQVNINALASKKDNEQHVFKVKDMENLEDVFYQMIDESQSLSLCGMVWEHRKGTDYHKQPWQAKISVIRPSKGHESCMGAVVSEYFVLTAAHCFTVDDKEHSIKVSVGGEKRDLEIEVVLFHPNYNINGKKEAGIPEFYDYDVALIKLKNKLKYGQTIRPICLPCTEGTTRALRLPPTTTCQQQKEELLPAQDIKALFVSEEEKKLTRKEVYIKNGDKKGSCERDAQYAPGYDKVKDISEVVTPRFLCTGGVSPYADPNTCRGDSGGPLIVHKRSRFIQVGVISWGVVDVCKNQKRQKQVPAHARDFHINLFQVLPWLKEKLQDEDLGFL

Relative KD [1]	Kd [2] [nM]	koff [2] [s⁻¹]	kon [2] [M⁻¹ s⁻¹]	Binder
8.47	14.9	0.00329	220000	VH3/Vκ3 (antibody, V domains shown) VH: EVQLVESGGGLVKPGGSLRLSCAASGFTFSNYAMSWVRQAPGKGLEWVATISNRGSYTYYADSVKGRFTISRDNAKNSLYLQMNSLRAEDTALYYCARERPMDYWGQGTLVTVSS VL: DIQMTQSPSTLSASVGDRVTITCKASQDVGTAVAWYQQKPGQPPKLLIYWASTRHTGVPDRFSGSGSGTDFTLTISSLQAEDFAVYFCHQHSSNPLTFGQGTKLEIK
6.93	12.2	0.00307	252000	VH2/Vκ3 (antibody, V domains shown) VH: EVQLVESGGGLVKPGGSLRLSCAASGFTFSNYAMSWVRQAPGKGLEWVATISNRGSYTYYPDSVKGRFTISRDNAKNSLYLQMNSLRAEDTALYYCARERPMDYWGQGTLVTVSS VL: DIQMTQSPSTLSASVGDRVTITCKASQDVGTAVAWYQQKPGQPPKLLIYWASTRHTGVPDRFSGSGSGTDFTLTISSLQAEDFAVYFCHQHSSNPLTFGQGTKLEIK
7.9	13.9	0.00326	234000	VH2/Vκ2 (antibody, V domains shown) VH: EVQLVESGGGLVKPGGSLRLSCAASGFTFSNYAMSWVRQAPGKGLEWVATISNRGSYTYYPDSVKGRFTISRDNAKNSLYLQMNSLRAEDTALYYCARERPMDYWGQGTLVTVSS VL: DIVMTQSPSTLSASVGDRVTITCKASQDVGTAVAWYQQKPGQPPKLLIYWASTRHTGVPDRFTGSGSGTDFTLTISSLQAEDFAVYFCHQHSSNPLTFGQGTKLEIK
6.19	10.9	0.00368	339000	VH2/Vκ4 (antibody, V domains shown) VH: EVQLVESGGGLVKPGGSLRLSCAASGFTFSNYAMSWVRQAPGKGLEWVATISNRGSYTYYPDSVKGRFTISRDNAKNSLYLQMNSLRAEDTALYYCARERPMDYWGQGTLVTVSS VL: DIQMTQSPSTLSASVGDRVTITCRASQDVGTAVAWYQQKPGQPPKLLIYWASTRHTGVPDRFSGSGSGTDFTLTISSLQAEDFAVYYCHQHSSNPLTFGQGTKLEIK
9.09	16	0.00377	236000	VH3/Vκ2 (antibody, V domains shown) VH: EVQLVESGGGLVKPGGSLRLSCAASGFTFSNYAMSWVRQAPGKGLEWVATISNRGSYTYYADSVKGRFTISRDNAKNSLYLQMNSLRAEDTALYYCARERPMDYWGQGTLVTVSS VL: DIVMTQSPSTLSASVGDRVTITCKASQDVGTAVAWYQQKPGQPPKLLIYWASTRHTGVPDRFTGSGSGTDFTLTISSLQAEDFAVYFCHQHSSNPLTFGQGTKLEIK
9.43	16.6	0.00375	225000	VH2/Vκ5 (antibody, V domains shown) VH: EVQLVESGGGLVKPGGSLRLSCAASGFTFSNYAMSWVRQAPGKGLEWVATISNRGSYTYYPDSVKGRFTISRDNAKNSLYLQMNSLRAEDTALYYCARERPMDYWGQGTLVTVSS VL: DIQMTQSPSTLSASVGDRVTITCRASQDVGTAVAWYQQKPGQPPKLLIYWASTRHTGVPDRFSGSGSGTDFTLTISSLQAEDFATYYCHQHSSNPLTFGQGTKLEIK
7.9	13.9	0.00404	291000	VH3/Vκ1 (antibody, V domains shown) VH: EVQLVESGGGLVKPGGSLRLSCAASGFTFSNYAMSWVRQAPGKGLEWVATISNRGSYTYYADSVKGRFTISRDNAKNSLYLQMNSLRAEDTALYYCARERPMDYWGQGTLVTVSS VL: DIVMTQSPSFLSASVGDRVTITCKASQDVGTAVAWYQQKPGQPPKLLIYWASTRHTGVPDRFTGSGSGTDFTLTISSLQSEDFAVYFCHQHSSNPLTFGQGTKLEIK
11.8	20.7	0.00373	180000	VH2/Vκ1 (antibody, V domains shown) VH: EVQLVESGGGLVKPGGSLRLSCAASGFTFSNYAMSWVRQAPGKGLEWVATISNRGSYTYYPDSVKGRFTISRDNAKNSLYLQMNSLRAEDTALYYCARERPMDYWGQGTLVTVSS VL: DIVMTQSPSFLSASVGDRVTITCKASQDVGTAVAWYQQKPGQPPKLLIYWASTRHTGVPDRFTGSGSGTDFTLTISSLQSEDFAVYFCHQHSSNPLTFGQGTKLEIK

The next lines start with the binder.

Binder	Relative KD [1]	Kd [2] [nM]	koff [2] [s⁻¹]	kon [2] [M⁻¹ s⁻¹]
VH1/Vκ2 (antibody, V domains shown) VH: EVQLVESGGGLVKPGGSLRLSCAASGFTFSNYAMSWVRQAPGKGLEWVATISNRGSYTYYPDSVKGRFTISRDNAKNSLYLQMSSLRSEDTALYYCARERPMDYWGQGTSVTVSS VL: DIVMTQSPSTLSASVGDRVTITCKASQDVGTAVAWYQQKPGQPPKLLIYWASTRHTGVPDRFTGSGSGTDFTLTISSLQAEDFAVYFCHQHSSNPLTFGQGTKLEIK	2.97	5.22	0.00251	481000
VH1/Vκ4 (antibody, V domains shown) VH: EVQLVESGGGLVKPGGSLRLSCAASGFTFSNYAMSWVRQAPGKGLEWVATISNRGSYTYYPDSVKGRFTISRDNAKNSLYLQMSSLRSEDTALYYCARERPMDYWGQGTSVTVSS VL: DIQMTQSPSTLSASVGDRVTITCRASQDVGTAVAWYQQKPGQPPKLLIYWASTRHTGVPDRFSGSGSGTDFTLTISSLQAEDFAVYYCHQHSSNPLTFGQGTKLEIK	3.7	6.52	0.00294	451000
VH0/Vκ1 (control) (antibody, V domains shown) VH: EVQLVESGGALVKPGGSLKLSCAASGFTFSNYAMSWVRQTPEKRLEWVATISNRGSYTYYPDSVKGRFTISRDNAKNTLYLQMSSLRSEDTALYYCARERPMDYWGQGTSVTVSS VL: DIVMTQSPSFLSASVGDRVTITCKASQDVGTAVAWYQQKPGQPPKLLIYWASTRHTGVPDRFTGSGSGTDFTLTISSLQSEDFAVYFCHQHSSNPLTFGQGTKLEIK	1.52	2.68	0.00157	586000
VH1/Vκ3 (antibody, V domains shown) VH: EVQLVESGGGLVKPGGSLRLSCAASGFTFSNYAMSWVRQAPGKGLEWVATISNRGSYTYYPDSVKGRFTISRDNAKNSLYLQMSSLRSEDTALYYCARERPMDYWGQGTSVTVSS VL: DIQMTQSPSTLSASVGDRVTITCKASQDVGTAVAWYQQKPGQPPKLLIYWASTRHTGVPDRFSGSGSGTDFTLTISSLQAEDFAVYFCHQHSSNPLTFGQGTKLEIK	2.22	3.9	0.00263	675000
VH1/Vκ5 (antibody, V domains shown) VH: EVQLVESGGGLVKPGGSLRLSCAASGFTFSNYAMSWVRQAPGKGLEWVATISNRGSYTYYPDSVKGRFTISRDNAKNSLYLQMSSLRSEDTALYYCARERPMDYWGQGTSVTVSS VL: DIQMTQSPSTLSASVGDRVTITCRASQDVGTAVAWYQQKPGQPPKLLIYWASTRHTGVPDRFSGSGSGTDFTLTISSLQAEDFATYYCHQHSSNPLTFGQGTKLEIK	5.09	8.96	0.00201	225000
VH1/Vκ1 (antibody, V domains shown) VH: EVQLVESGGGLVKPGGSLRLSCAASGFTFSNYAMSWVRQAPGKGLEWVATISNRGSYTYYPDSVKGRFTISRDNAKNSLYLQMSSLRSEDTALYYCARERPMDYWGQGTSVTVSS VL: DIVMTQSPSFLSASVGDRVTITCKASQDVGTAVAWYQQKPGQPPKLLIYWASTRHTGVPDRFTGSGSGTDFTLTISSLQSEDFAVYFCHQHSSNPLTFGQGTKLEIK	2.85	5.01	0.00287	574000

From patent US20210332115A1 (Sanofi, published 2021)
